Test results published in PMC12583513, “Deciphering the molecular mechanism of the bacterial division motor TolQRA” (Cell Discovery, 2025).
Several values for one entry are separate records, joined by “and”; a condition that tells them apart may be missing. Identical values can stand only once.

T1: TolA (residues 34–421) (Escherichia coli K12, UniProt P19934 34-421, RED-tris-NTA dye on the His tag)
T1 construct: TolA of Escherichia coli K12, residues 34-421, amplified from genomic DNA into a modified pET28a; also called soluble TolA; TolA with the periplasmic loop TolA_β; source: E. coli BL21(DE3), purified (Ni-NTA column, desalting); not shown: 8x His, C-terminal, kept
T1 sequence (looked up): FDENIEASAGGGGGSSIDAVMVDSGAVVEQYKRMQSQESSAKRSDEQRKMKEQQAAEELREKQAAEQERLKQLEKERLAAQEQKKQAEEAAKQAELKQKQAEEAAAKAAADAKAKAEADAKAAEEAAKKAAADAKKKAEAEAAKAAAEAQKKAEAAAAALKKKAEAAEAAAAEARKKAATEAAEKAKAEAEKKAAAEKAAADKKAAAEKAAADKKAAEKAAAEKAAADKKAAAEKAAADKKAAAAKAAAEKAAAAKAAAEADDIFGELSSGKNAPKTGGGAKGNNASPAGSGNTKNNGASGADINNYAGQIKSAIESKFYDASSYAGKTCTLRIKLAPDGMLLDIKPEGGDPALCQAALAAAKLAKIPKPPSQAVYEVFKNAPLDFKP

T2: TolA (residues 58–421) (Escherichia coli K12, UniProt P19934 58-421, RED-tris-NTA dye on the His tag)
T2 construct: TolA of Escherichia coli K12, residues 58-421, amplified from genomic DNA into a modified pET28a; also called soluble TolA without TolA_β; source: E. coli BL21(DE3), purified (Ni-NTA column, desalting); not shown: 8x His, C-terminal, kept
T2 sequence (looked up): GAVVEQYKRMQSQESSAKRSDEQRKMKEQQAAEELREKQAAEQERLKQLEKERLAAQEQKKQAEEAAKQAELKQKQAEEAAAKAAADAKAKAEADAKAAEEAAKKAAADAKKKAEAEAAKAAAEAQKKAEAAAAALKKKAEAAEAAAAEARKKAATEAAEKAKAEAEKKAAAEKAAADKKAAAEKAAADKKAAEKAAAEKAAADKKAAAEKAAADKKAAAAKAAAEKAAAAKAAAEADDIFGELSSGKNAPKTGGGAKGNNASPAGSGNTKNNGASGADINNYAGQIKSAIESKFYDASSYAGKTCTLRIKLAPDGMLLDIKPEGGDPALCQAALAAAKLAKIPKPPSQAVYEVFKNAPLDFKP

B1: TolQ (natural protein, Escherichia coli (strain K12))
chain: MTDMNILDLFLKASLLVKLIMLILIGFSIASWAIIIQRTRILNAAAREAEAFEDKFWSGIELSRLYQESQGKRDNLTGSEQIFYSGFKEFVRLHRANSHAPEAVVEGASRAMRISMNRELENLETHIPFLGTVGSISPYIGLFGTVWGIMHAFIALGAVKQATLQMVAPGIAEALIATAIGLFAAIPAVMAYNRLNQRVNKLELNYDNFMEEFTAILHRQAFTVSESNKG
notes: TolQ of Escherichia coli strain K12; the operon encoding TolQRA was cloned into pTRC99a; no tag on TolQ in this construct; The whole tolQRA operon was cloned, so the whole gene is implied; a minor hexameric class (six TolQ subunits) was also seen; also called TolQ1; TolQ2; source: E. coli C43 (DE3), co-expressed from pTRC99a-TolQR(Strep)A(His), purified as complex (HisTrap + Superdex 200, …)
B2: TolR (residues 60–133) (domain or fragment, Escherichia coli K12, UniProt P0ABV6 60-133, looked up)
chain: DNPPVIVEVSGIGQYTVVVEKDRLERLPPEQVVAEVSSRFKANPKTVFLIGGAKDVPYDEIIKALNLLHSAGVK
notes: TolR of Escherichia coli K12, residues 60-133 of the periplasmic domain, amplified from genomic DNA into a modified pET28a; also called TolR^60–133; TolR lacking both β1/α1 and β6; source: E. coli BL21(DE3), purified (Strep-Tactin column, desalting)

Legend:
[1] = molecular target: the molecule itself; test: cryo-EM structure; TolQRA co-expressed, purified by the His tag of TolA in DDM/CHS then LMNG/CHS, reconstituted in MSP1D1 nanodiscs with E. coli total lipid extract; 20 mM Tris pH 7.8, 150 mM NaCl; classes with one, two or three TolA
TolA (residues 34–421) = molecular target: T1, TolA (residues 34–421); test: MST; TolA labelled with RED-tris-NTA dye, fixed at 50 nM; TolR titrated in 16 points from 150 μM to 4.58 nM; 20 mM HEPES pH 7.8, 150 mM NaCl; 25 °C; Monolith NT.115; conditions: both partners purified
TolA (residues 58–421) = molecular target: T2, TolA (residues 58–421); test: as above; conditions: both partners purified

Row | Binder | stoichiometry N [1] | binding result (TolA (residues 34–421)) | binding result (TolA (residues 58–421))
1 | B1 | 5 and 6 |  | 
2 | B2 |  | binds | binds
